Results: patent publication US12281340B2, “Method of producing N-acyl-amino group-containing compound” (AJINOMOTO CO., INC., priority 2018, dated 2025)

Assay: Synthesis of N-capryloylamino acid using washed microbial cell suspension or microbial cell suspension expressing acylamino acid synthetase
Type: cell-based, E coli BL21(DE3)
Details: UV 210 nm
Method: BL21(DE3)/pET-28a-AtGH3-6, BL21(DE3)/pET-28a-OsGH3-8, BL21(DE3)/pET-28a-AtGH3-5, and BL21(DE3)/pET-28a were inoculated to 100 mL of LB medium containing 25 mg/L of kanamycin in a Sakaguchi flask, respectively and cultured with shaking at 37° C. When OD610 reached 0.6, 1 mM IPTG was added, and culturing with shaking was continued at 15° C. for 24 hours.
BL21(DE3)/pET-28a-CfHP was inoculated to 100 mL of LB medium containing 25 mg/L of kanamycin in a Sakaguchi flask, and cultured with shaking at 37° C. When OD610 reached 0.2, 1 mM IPTG was added, and culturing with shaking was continued at 15° C. for 24 hours.
After completion of the culture, microbial cells were collected from 5 mL of the resulting culture medium by centrifugation and washed with 20 mM Tris-HCl (pH 7.6) followed by being suspended in 1 mL of 20 mM Tris-HCl (pH 7.6) to use as a washed microbial cell suspension.
After completion of the culture, 15 mL of the resulting culture medium was concentrated to 3 mL by centrifugation to use as a microbial cell suspension.
0.3 mL of a reaction solution containing 33.3 mM Tris-HCl, 3.3 mM amino acid, 3.3 mM sodium caprylate, 6.7 mM or 0 mM ATP, 6.7 mM MgCl2, 0.7 mM DTT, 30 μg of the microbial cell suspension (cell free extract solution, washed microbial suspension, microbial suspension), pH 8.0 was incubated at 25° C. for 24 hours. As the amino acid, L-Asp was used in AtGH3-6, OsGH3-8, AtGH3-5, and Gly or L-Ala was used in CfHP. After completion of the reaction, 0.8 mL of the reaction stop solution (1% (v/v) phosphoric acid, 75% (v/v) methanol) was added, and the mixture was filtrated through the filter followed by being subjected to the UPLC-MS analysis to detect a signal of a molecular weight corresponding to the N-capryloylamino acid. The condition for the UPLC-MS analysis is as described in Example 2. As a result of the UPLC-MS analysis, the signal of the molecular weight corresponding to the appropriate N-capryloylamino acid was confirmed in the reaction solution using the microbial cell suspension and the like shown in Table 8 below.
As a result of quantifying the produced N-acylamino acid by detection at UV 210 nm, when Gly was used as the substrate in CfHP, 2.8 mM, 2.2 mM and 2.6 mM N-capryloylamino acids were detected in the washed microbial cell suspension, the microbial cell suspension (in the presence of ATP) and the microbial cell suspension (in the absence of ATP), respectively. When L-Ala was used as the substrate in CfHP, 2.4 mM, 0.9 mM and 1.0 mM N-capryloylamino acids were detected in the washed microbial cell suspension, the microbial cell suspension (in the presence of ATP) and the microbial cell suspension (in the absence of ATP), respectively.

B1: CfHP: hypothetical protein from Cystobacter fuscus (GH3 protein), His-tagged (protein, listed as Cystobacter fuscus)
chain: MQAAGRRDKQRFIEQTRHVARVNVDTLRAILQHNRDTDFGRRHGFASLRTVEDFQRALPVSTYEPFRPYMERIARGEQNVLTADRVEYLGITSGTTGQRKLLPVSRPHLENMRRTMMIGRAVVTEKVPAARRPSRGMILMNAVLRERSEGGLLTGALTAISTHSMGRAASFAFTSPPEAFRLRKHADALYLHLLFGLRERELGTLMAPFASGLLDMVHLLERRGADLVDDIARGVLRPELDLEPEQRRLLQSRLLPDPERAREVSQALEQGPHGLLRRLWPRLAYVSSITGASFSLYTRQLTPYLEGVPLSAASYVSTEGILGVPLELEQAVYCLMVGMAFFEFIPERELDAESPTTLLPEQLVEGEAYEVVLTTQAGLYRYRLGDVVRIVGRYHEAPLMEFLYRRGALLNLMGEKTSEHAARLALEQALATEGLLPADYSVVEETETLPGRYALFVELQEGARPQGAPEQLSRALEEALCRTNPFYEVIRRSERLGAAQLHRVEPGTFQALRDVLVQRGASPTQVKVPRVVRDAELQGLLRQRRVTG
modifications: His-tag
notes: hypothetical protein from Cystobacter fuscus (GH3 protein), His-tagged
Gly as substrate, microbial cell suspension (in the absence of ATP)
  N-capryloylamino acid detected: 2.6 mM
Gly as substrate, microbial cell suspension (in the presence of ATP)
  N-capryloylamino acid detected: 2.2 mM
Gly as substrate, washed microbial cell suspension
  N-capryloylamino acid detected: 2.8 mM
L-Ala as substrate, microbial cell suspension (in the absence of ATP)
  N-capryloylamino acid detected: 1.0 mM
L-Ala as substrate, microbial cell suspension (in the presence of ATP)
  N-capryloylamino acid detected: 0.9 mM
L-Ala as substrate, washed microbial cell suspension
  N-capryloylamino acid detected: 2.4 mM
